Data from US20170369542A1 (Pieris, published 2017).
Where no end group is shown, it is not given here.

B1: synthetic non-modified human Hepcidin-25 (peptide)
peptide: DTHFPICIFCCGCCHRSKCGMCCKT
modifications: not fully specified (bridges); ends and bridges not checked
notes: also called hHepcidin-25; non-biotinylated human hepcidin
B2: lipocalin mutein of SEQ ID NO: 13, linked to PEG40 (designed binder)
chain: QDSTSDLIPAPPLSKVPLQQNFQDNQFHGKWYVVGLAGNEVLREDKDPMKMWATIYELKEDKSYNVTIVMPLAEKCEYLFQTFVPGCQPGEFTLGGIKSGPGRTSGLVRVVSTNYNQHAMVFFKVVWQNREVFWVTLYGRTKELTSELKENFIRFSKSLGLPENHIVFPVPIDQCIDG
modifications: branched 40k PEG-maleimide on the free Cys at position 87
notes: hNGAL mutein with Ser 87 back-mutated to Cys and PEGylated there

What was measured:
[1] = molecular target: murine ferroportin (FPN) carboxy-terminally fused with green fluorescent protein (GFP) (murine), Q9JHI9; experiment: cell-based or functional assay
murine ferroportin (FPN) carboxy-terminally fused with green fluorescent protein (GFP) (murine), Q9JHI9, sequence (Q9JHI9 whole entry, the tested form may be a part): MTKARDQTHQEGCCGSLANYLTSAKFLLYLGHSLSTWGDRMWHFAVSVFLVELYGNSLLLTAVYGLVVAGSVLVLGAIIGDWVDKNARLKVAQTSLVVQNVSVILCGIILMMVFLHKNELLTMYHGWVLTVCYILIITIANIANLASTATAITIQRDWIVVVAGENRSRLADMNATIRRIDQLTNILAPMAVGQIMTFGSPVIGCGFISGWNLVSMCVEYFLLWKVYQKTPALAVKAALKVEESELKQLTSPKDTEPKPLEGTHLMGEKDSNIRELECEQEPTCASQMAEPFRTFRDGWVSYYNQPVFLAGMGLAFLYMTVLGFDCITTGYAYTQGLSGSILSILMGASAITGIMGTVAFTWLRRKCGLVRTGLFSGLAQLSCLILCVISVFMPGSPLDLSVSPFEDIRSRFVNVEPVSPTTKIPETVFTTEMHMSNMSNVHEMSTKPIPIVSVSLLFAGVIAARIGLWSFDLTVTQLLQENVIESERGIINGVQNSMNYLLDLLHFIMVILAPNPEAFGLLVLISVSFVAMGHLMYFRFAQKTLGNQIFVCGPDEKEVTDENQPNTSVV

[2] = molecular target: T1, lipocalin mutein of SEQ ID NO: 14, linked to PEG40 (branched 40k PEG-maleimide on the free Cys at position 87); experiment: competition ELISA, free human hepcidin against captured biotinylated hepcidin
T1 construct: hNGAL mutein with Ser 87 back-mutated to Cys and PEGylated there
T1 chain: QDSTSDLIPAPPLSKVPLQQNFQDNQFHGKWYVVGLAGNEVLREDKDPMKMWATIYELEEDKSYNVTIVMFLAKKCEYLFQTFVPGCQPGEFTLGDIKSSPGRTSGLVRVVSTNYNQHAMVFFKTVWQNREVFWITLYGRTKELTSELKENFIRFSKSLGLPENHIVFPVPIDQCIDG

[3] = molecular target: B2; experiment: as above
[4] = molecular target: B1; experiment: cell-based or functional assay
[5] = molecular target: B1; experiment: SPR (Biacore T100), mutein immobilized on CM5 chip, hepcidin-25 in solution, 1:1 model
Description: (§1) Lipocalin muteins were immobilized to a CM5 sensor chip using standard amine chemistry: The surface of the chip was activated using EDC and NHS. Subsequently, 20 μg/mL lipocalin mutein solutions in 10 mM sodium acetate pH 4.5 (60 μg/mL in 10 mM sodium acetate pH 4.0 for pegylated lipocalin mutein) were applied at a flow rate of 5 μL/min until a surface density of 500-700 resonance units (RU) for non-modified lipocalin muteins and of approximately 1600 RU for pegylated lipocalin with the sequence of SEQ ID NO: 13 was achieved. Residual activated groups were saturated with ethanolamine. The reference channels were treated with EDC/NHS following ethanolamine (blank immobilization). All reagents and materials were purchased from GE Healthcare.
(§2) Serial dilutions of human and cynomolgus Hepcidin-25 in running buffer (HBS-EP+, GE Healthcare, BR-1006-68) were applied to the prepared surface. The following parameters were used for the binding assay: contact time 60 s, dissociation time 180-360 s, flow rate 30 μL/min. All measurements were performed on a Biacore T100 instrument (GE Healthcare) at 25° C.
(§3) Data were evaluated with Biacore T100 Evaluation software (V 2.0.1). Double referencing was used. The 1:1 Binding model (Langmuir) was used to fit the raw data.

[6] = molecular target: B1; experiment: SPR, Biacore T100, pegylated mutein amine-coupled to CM5 chip, hepcidin as analyte, 1:1 model, 25 C
Description: as §1, §2, §3

cynomolgus Hepcidin-25 = molecular target: T2, cynomolgus Hepcidin-25 (cynomolgus, UniProt A7XEI3 60-84, not fully specified); experiment: SPR, Biacore T100, mutein amine-coupled to CM5 chip, hepcidin as analyte, 25 C
T2 construct: mature
T2 peptide: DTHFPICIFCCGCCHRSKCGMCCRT
Description: as §1, §2, §3

[7] = molecular target: B1; experiment: competition ELISA: non-biotinylated human hepcidin-25 titrated against a constant concentration of mutein; free mutein detected on plate-captured biotinylated human hepcidin
Description: The binding affinity of the Lcn2 muteins to non-modified hepcidin-25 in solution was evaluated in a competition ELISA approach. Therefore, a constant concentration of 1 μg/ml C-terminal biotinylated human hepcidin (Bachem AG, CH) was captured on the surface of a polystyrol plate (Greiner, GE) via Neutravidin (Thermo Scientific, 5 μg/ml, GE). In parallel a two step dilution series of non-biotinylated human hepcidin starting from 1 μM was incubated with a constant concentration of hepcidin-specific mutein for 1 h at room temperature in a non-protein binding 96 well polypropylene plate (Nunc, GE). The constant concentration of lipocalin muteins corresponds to the EC₅₀ of the respective muteins as determined in a direct ELISA as described above in this example. In the following the mixture of non-modified human hepcidin and lipocalin mutein was transferred onto the hepcidin-captured Neutravidin plate. The C-terminal biotinylated hepcidin was allowed to compete with the non-modified hepcidin for Anticalin binding for 20 min. at room temperature. During these 20 min, free lipcocalin mutein was bound to the captured hepcidin and detected via a rabbit anti-strep-tag II polyconal antibody (GenScript, USA). A goat anti-rabbit IgG-HRP conjugate (Abcam, UK) was employed as secondary detection antibody. Parallel to the competition assay, anticalin binding was determined on the same plate in a “direct” ELISA, in order to obtain a standard curve linking the RFU values to anticalin concentration. This curve was then used to standardize competition data to the level of anticalins bounds to the plate and fitted with Graphpad software. IC₅₀ values correspond to the half-maximum amount of lipocalin mutein bound to the plate.

[8] = molecular target: T3, C-terminal biotinylated human Hepcidin-25 (human, not fully specified; biotinylated via a Lysine residue coupled to the C-terminus via a Mini-PEG linker); experiment: direct ELISA, biotinylated hepcidin captured via Neutravidin, mutein titrated
T3 construct: Bought from Bachem AG; Captured on plates via Neutravidin; also called C-terminal biotinylated hepcidin; C-terminal biotinylated hHepcidin
T3 peptide: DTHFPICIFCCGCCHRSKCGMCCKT
Description: (§4) A “direct” ELISA was performed to verify the binding affinity and specificity of the selected Lcn2 muteins. Therefore, a constant concentration of 1 μg/ml C-terminal biotinylated hepcidin (Bachem AG, CH) was captured on the surface of a polystyrol plate (Greiner, GE) via Neutravidin (Thermo Scientific, 5 μg/ml). Two step dilution series of purified Lcn2 muteins were incubated with the captured hepcidin for 1 h at room temperature and detected either via the Strep-tag II using a rabbit anti-strep-tag II polyconal antibody (GenScript, USA) or by using a scaffold-specific polyclonal rabbit antibody. In both cases an anti rabbit IgG-HRP conjugate (Abcam, UK) was employed as secondary detection antibody.
(§5) The absorption ΔA at […] was measured in an ELISA reader (Tecan, GE) and the data were fitted with Graphpad Prism software (Statcom, USA).

[9] = molecular target: T3, C-terminal biotinylated human …; experiment: direct ELISA, biotinylated hepcidin captured via Neutravidin
Description: as §4, §5

B1
EC80 of hepcidin-mediated degradation of the Fpn-GFP fusion protein (GFP fluorescence by flow cytometry) [1]: 40 nM
factor by which pegylation reduced the binding affinity (against the non-pegylated mutein) [2]: 4 fold
factor by which pegylation reduced the binding affinity (against the non-pegylated mutein) [3]: 2 fold

B2
IC50 of neutralization of hepcidin-induced (40 nM) internalization and degradation of FPN-GFP in T-REx-293 cells, GFP fluorescence by flow cytometry [4]: 34 nM
Kd [5]: 0.041 nM
koff [5]: 0.000123 s⁻¹
kon [5]: 2.98e+06 M⁻¹ s⁻¹
Kd [6]: 0.04 nM
fold higher affinity compared to the human target (cynomolgus Hepcidin-25): ~2 fold
IC50 [7]: 0.24 nM
Kd [8]: 3.49 nM

B3: pegylated mutein of SEQ ID NO: 8 (designed binder)
chain: QDSTSDLIPAPPLSKVPLQQNFQDNQFHGKWYVVGLAGNEVLREDKDPMKMWATIYELKEDKSYNVTIVMPLAEKCEYLFQTFVPGCQPGEFTLGGIKSGPGRTSGLVRVVSTNYNQHAMVFFKVVWQNREVFWVTLYGRTKELTSELKENFIRFSKSLGLPENHIVFPVPIDQCIDG
modifications: branched 40k PEG-maleimide on Cys 87
factor by which pegylation reduced the binding affinity (against the non-pegylated mutein) [9]: 5 fold

B4: pegylated mutein of SEQ ID NO: 1 (designed binder)
chain: QDSTSDLIPAPPLSKVPLQQNFQDNQFHGKWYVVGLAGNEVLREDKDPMKMWATIYELEEDKSYNVTIVMFLAKKCEYLFQTFVPGCQPGEFTLGDIKSSPGRTSGLVRVVSTNYNQHAMVFFKTVWQNREVFWITLYGRTKELTSELKENFIRFSKSLGLPENHIVFPVPIDQCIDG
modifications: branched 40k PEG-maleimide on Cys 87
factor by which pegylation reduced the binding affinity (against the non-pegylated mutein) [9]: 8 fold
